Measurements reported in the domain aggregation screens of Martell et al. (2025).

Experiment: soluble fraction after stress (log2 fold change); higher = more stays soluble; pooled small domains, quantitative proteomics
Conditions: stress: 75 degC
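Note: 20 min heating vs room temperature control held 20 min.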

Sequence | soluble fraction (log2)
HMTKQIILVHVAGKVKKPDVYPLLQGSRVADAIKAAGGAKKGVELNDINLARVLIDGEQVFVGYVPE | -2.2
HMTKQRSAIMNLLAERNTPLTAEEIGEAIAPSYPKLALSTVYRNLELFTNAGLLEKSFFQDGITRYSLTK | -0.976
HMTKRTEPSILQNFDTEIAELIAKNRGISIMDALRIFLASKTHEMLENDEMKLWYFSPLAVFDMWENE | 0.318
HMTKSIDFDFREDGVYIKADKDVTIVDIVTKIDLRRIQSVDLTKIKQMLEIGSLDNWIKIAEPQMEK | -2
HMTKSTLQRQKIIADLIESGNISSQNQLKGLLKKNSLLITQATLSRDLSELGAIKKRQKDGLLVYVLPK | -0.365
HMTKTKADKIDYAIGDSGTEPPTEDKWTDLAHLPLIKAGQFQWTRRTEYYSDGSTAVSYNIAKSE | 0.096
HMTKYKEIVDQLRTNIYEGVFPALSKLPEQTALAKRFQTSRMTIQKALNQLKQEGLISTKRGHGTYVNSAT | -0.74
HMTKYVEGQKYVFEFRDGTITIGTYLRTGEGNIYIKDLSGEDIYIPKIMIAQIHLATDDNVKGDEFWF | -1.26
HMTLDSLEKLSVNDLEKMLVNMPVGYKTIFLLSVIDEYSHKEIGELLGITPETSRSQLFRAIKWIKTNIF | -0.631
HMTLGARTLAAIQSLPKVQQAVFTMKHFEGLKYREISQITGTSEGALKASYHIALEKIKAFLREK | -2.18
HMTLGEHILQYRTARGWSQEDLANALEVSRQSVSKWETDASTPELDKIVRLSEIFQVSIDELVTGKA | -0.316
HMTLGENLQNLRKEAGLSQEQVAQQLFVSRQTVSKWENNLAEPGVENLKALARLYGVTLDRLVGM | -0.223
HMTLKVQLSEISKMVSLSYIAKKYFNKSQSWLSQRINGNTIHNKPAKFTSEELATLQFALKDIGNILNSTV | -2.6
HMTLLVPASKEAILGGLAKIDALKVILKPEKDYSKTHAMTIGTKDEVIAKLDSFLSGMDSEKNQVLIQEYM | 0.456
HMTLSDIGHAVRTRRTELGLSQVQLARLSGLSRQTLVGLENGTLNDLGINRVAQLLAVLGLDAP | -2.02
HMTLSHAINRLRLNANMSQEQFAGLFHVSQQSVQKWESGDSVPELSKLIAIAKHFGISLDALILGN | -2.52
HMTLTEQQITDNYKELRKIINDTFSGLRLDKLNHMYDDLEDRMVVAPASSVEHYHNSKVGGYVEHILHVI | -0.124
HMTLTIEDGYVNAKLKTTVEGLAEDSTIKVDSIEYTNAGKNDILTVFVEDKPYRVEKYKINIAPEDS | 0.139
HMTLVSALDQKTKDSAYYRGTYLAGKISAGKMTKQEAVADIMKNYDGNTAAMKVAAEKAGVSDLLSQTVL | 0.0489
HMTMKQVFIETDANVNQKIMLNEKEAHHLFDVLRTSDKETIRVVTNTSQVFLARVQQKPYIYLFDKMTVE | -2.49
HMTMNYFIIENNQQVGPLTLEQLVARNITSDTLVWKEGMEDWQPAWKVDELHTVLDQIRANAEQ | -0.00196
HMTMVVIMNADATQADIEGVISAIEEKGLEAKVMEGAHQKIVGVIGDKTKLAATPLDAMHGVETTVAIS | -0.244
HMTNATVGQIKKLARASILYGNSNLSGNRYTYKANTTVTILQNISSNVDKIRVNVTGRVAYIDNSNYSSST | -3.59
HMTNEQLSKAKSWVQIAVYAAEKLYGAGNGDQKLVYAEEILRKHGIRLDTATLKAMIDAQIKEMEN | -1.01
HMTNEWRKILSNLNGKYQIVMELFYVDGFSTKEIARMLHITEVNVRSRMVRGRKQLEQILTVR | -0.0301
HMTNPPITTEARNLVVEQLKELNALHPEKARELADSYKKEFNVPKVIGHITEARHGEFLALAISKIDES | -0.241
HMTNPPTPADTLFNTVRGVLQSILKSPMKDTEVASALNVSKAQARSWLQRLSDEGLIEKRKNPTAYVL | -0.592
HMTNTYEVIKNDIIFGVLPPLKKLKLLELKKKYITSVSTLREILSRLSGDGFVVSKEQKGFYVSAV | -0.0741

Sequence | soluble fraction (log2)
HMTNVNSLIGKKAIVIQDIDNLKSTGQVKIGGEIWSAQSESNDIISKDTEVEIVKIDGVKLIVRLVPV | -0.153
HMTNYNTEKIIPEEQAGKRLDVVLANIFPEFSRSRLKNWIIDGFILVDGKVLRPRDFVTGGELVSIDVIV | -0.123
HMTPADEAGNDLDIGQTVKILRRVSEGQYEVSYRGTTWQARALNAQAAVEPSFAVIGGKEGNILLVHL | -0.202
HMTPDVAEFRERLRQILPGEQIEVRTANDGIVLSGTVSSIARLDAALQLAERYAPSRVSNLMSVG | 0.00274
HMTPEPVREALTFQEGRVFALAAKNMTNAEIAQSLSLKLKTVENYMSIIYQKLALKNRYELLVYARKSGV | -0.576
HMTPESSLHSGLGKILHDALTAKIQLTNFEAKFLSDMQSKYDLNGSFSWLSSKQQTTLEKILAKYGR | -1.98
HMTPFLVRVDISDLNIRTGAGTNYSRTGQYTGKGIFTILEVKSGQGSDAGWGRLKSGAGWISLDYTTR | -2.84
HMTPIELIEKTIELIENERKVQKLQQKELALKADIPFPTYKDFIYKKRASLENILKLFIALRLF | -0.384
HMTPKVAVPSFVGWKFEDVERQLGTMGLIRGKVDNHPSEEYSEGRVIWQSVLGEVEKGKVIDFWVSTGPE | 0.0612
HMTPNATWQDDAQSLLRDLIQHQPVLIQISAAKRLRDQAEQISRITGGDTVTRDHVEAAGHALGMGVT | -0.0233
HMTPPLSKIRNMTPDQQRSSVIEARKKGYNLLQLEGLAKAQGATPADLLVLRNAWAQSEFDQKR | 0.067
HMTPQVALNDTETAIYEKMKQEKQMLLGELRAQFDISNKLWDTSLKTLTKNQLLAVSKEDDLLFVKL | -0.195
HMTPQVTVPDVTGQSFASAKQVLESLGLTVKQQGSTGENDKVIGQNPTSGNADKGATITLTTQDS | 0.536
HMTPSTVQVHVAGAVKNPGVYVLLENARNIDAITAAGGATSEADLERINLSEFIRDGQRVYVPYKGDPI | 0.459
HMTPTITNALEEAEKAVSEVQEGKKEIELTPQGAYIRHLQHAIADRYGISSTSTGRDPKRKVIIY | -0.578
HMTPTNILIVEDEKEIRRFVRTALESEGLRVFESETLQRGLIEAGTRKPDLIILDLGLPDGDGLSYIRDLR | -0.0383
HMTPTRQATVSVAALNVREQPSLQGRRLGKLTQGTTLTVVGPPGEWLKIEYKGETGFVYASYTSLG | -2.01
HMTPTVEAAKEEVLRVLASAAPRGLTRTELEAEVSFRRTKLRDTLVELERIGRIDSVGRRGNATTYRLIG | -1.44
HMTPVEVNARGVHVDFSKGGILLEDVVRHLILEALRASEWKRGPAAQLLGISKETLRYRMEKYRLYPP | -2.43
HMTPYEVLVYESLKQKILSGGYAAGEKIPEQSVSEELGVSRSPLRSAIRRLASEGLIEYYPYRGAFVKA | -1.06
HMTQEAMRSLRKSLQNLSSRQQVIFMLRHYEGLALKEIAEHLGLETGTVKAHLHRAVTQLRKDLVE | -1.85
HMTQHDIVPLMLKMVDVLTQFVELDIPFLQQERQTRLAALNAMMGRADVSLAEKYRRIMEAYQVETEYG | -0.0856
HMTQLEVDLFERLITISGVGPRLALAVLSGLEPPDLLRAIQDSDIVRLQGIPGVGKKTAERISLELKDKLS | -1.35
HMTQQYVEWKVYNVTTIKNKYGFRVKLIFQDGSDATQQKGGFTSKKAAEQARTEVIGQLYSNTYVVY | -4.59
HMTQSGLTQWEFNMLRQALIEMLGEKPGSVFELARLLPLEQEKNVQALRFLLDHDDQFHLKDEYISFVKRT | -2.34
HMTQTAVFSKGEQEYYFPLSKVLFFETDGNTINVHTADDIYETRYRLYELEEMLPGSFMRISKSAVVNTNR | 0.00772
HMTRAEVQALLEKQAKDFEVEVVHRGWKKTVQTPEFAGWYSQQPAEIKALAESDDPAVAIRMLDLFSGTK | -0.0943
